According to the supplement of paper PMC9233669:
Fewer inactive variants are shown than the library holds.

Experiments:
biotinyl-Met-oxazolone = experiment: self-aminoacylation, catalytic enhancement (BMO) (fold over background); higher = more active; k-Seq, kA / k0A0; sequences stand for … in GGGAAUGGAUCCACAUCUACGAAUUC…UUCACUGCAGACUUGACGAAGCUG
Outline: (§1)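 Catalytic enhancement equals the median kA over the uncatalyzed rate, the latter read from the low-activity peak of a bimodal Gaussian fit. Values of kA came from fitting each sequence's fraction reacted to a pseudo-first-order model, with 1000 bootstraps. Reacted RNA was captured with streptavidin and quantified by triplicate qPCR and Illumina sequencing after 90 minutes at room temperature with 2–1250 μM biotinyl-aminoacyl-oxazolone and 0.43 μM mutagenized RNA pools bearing a 21-nt variable region.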

biotinyl-Ile-oxazolone = experiment: self-aminoacylation, catalytic enhancement (BIO) (fold over background); higher = more active; k-Seq, kA / k0A0; sequences stand for … in GGGAAUGGAUCCACAUCUACGAAUUC…UUCACUGCAGACUUGACGAAGCUG
Outline: as §1

biotinyl-Phe-oxazolone = experiment: self-aminoacylation, catalytic enhancement (BFO) (fold over background); higher = more active; k-Seq, kA / k0A0; sequences stand for … in GGGAAUGGAUCCACAUCUACGAAUUC…UUCACUGCAGACUUGACGAAGCUG
Outline: as §1

biotinyl-Leu-oxazolone = experiment: self-aminoacylation, catalytic enhancement (BLO) (fold over background); higher = more active; k-Seq, kA / k0A0; sequences stand for … in GGGAAUGGAUCCACAUCUACGAAUUC…UUCACUGCAGACUUGACGAAGCUG
Outline: as §1

biotinyl-Trp-oxazolone = experiment: self-aminoacylation, catalytic enhancement (BWO) (fold over background); higher = more active; k-Seq, kA / k0A0; sequences stand for … in GGGAAUGGAUCCACAUCUACGAAUUC…UUCACUGCAGACUUGACGAAGCUG
Outline: as §1

biotinyl-Val-oxazolone = experiment: self-aminoacylation, catalytic enhancement (BVO) (fold over background); higher = more active; k-Seq, kA / k0A0; sequences stand for … in GGGAAUGGAUCCACAUCUACGAAUUC…UUCACUGCAGACUUGACGAAGCUG
Outline: as §1

Row | Sequence | self-aminoacylation (biotinyl-Met-oxazolone) | self-aminoacylation (biotinyl-Ile-oxazolone) | self-aminoacylation (biotinyl-Phe-oxazolone) | self-aminoacylation (biotinyl-Leu-oxazolone) | self-aminoacylation (biotinyl-Trp-oxazolone) | self-aminoacylation (biotinyl-Val-oxazolone)
1 | AUUACCCUGGUCAUCGAAUGA [Fam2.1 aminoacylation ribozyme variant] | 1.07 | 1 | 0.974 | 1.08 | 0.908 | 1.06
2 | CCACACUUAAAGCCAUCGGUC [Fam1B.1 aminoacylation ribozyme variant] | 0.801 | 0.992 | 0.617 | 0.913 | 1.06 | 1.11
3 | AACUUUGCUACUAGUCGCAAG [Fam3.1 aminoacylation ribozyme variant] | 2.34 | 2.14 | 3.3 | 1.91 | 2.43 | 2.24
4 | CUACUUGAAACAAUCGGUCCG [Fam1A.1 aminoacylation ribozyme variant] | 1.31 | 0.929 | 0.497 | 0.748 | 1.48 | 1.02
5 | AUUCAUCUAGAUCAUCGGGUG [Fam2.2 aminoacylation ribozyme variant] | 2.68 | 2.1 | 14.1 | 4.1 | 3.24 | 2.14
6 | ACGUUUGCAAAUAGUCGCAAG [Fam3.1 aminoacylation ribozyme variant] | 1.38 | 1.57 | 1.27 | 1.29 | 1.2 | 1.2
7 | AAUCACCUAGGUCAUCGGGUA [Fam2.2 aminoacylation ribozyme variant] | 12 | 7.76 | 52.7 | 14.7 | 10.5 | 7.24
8 | AUUCACCUGGGUCAGCGGGUG [Fam2.2 aminoacylation ribozyme variant] | 5.26 | 4.33 | 36.7 | 6.66 | 4.72 | 4.26
9 | AUUUCCCUGGUCAUCCAGUGA [Fam2.1 aminoacylation ribozyme variant] | 7.52 | 4.3 | 55.4 | 8.35 | 9.93 | 4.5
10 | CAACACUUAAAGCAAUCGGUC [Fam1B.1 aminoacylation ribozyme variant] | 0.98 | 1.12 | 0.828 | 0.82 | 0.79 | 0.909
11 | CUACUUCAAACUAUGGGUCUG [Fam1A.1 aminoacylation ribozyme variant] | 0.789 | 0.917 | 0.588 | 0.922 | 0.592 | 0.813
12 | CUACAUCGAACAAUCGGUCUG [Fam1A.1 aminoacylation ribozyme variant] | 0.922 | 0.909 | 1.04 | 0.946 | 1.17 | 0.942
13 | AUUACCGUGGUCAUCGAGUUA [Fam2.1 aminoacylation ribozyme variant] | 0.946 | 1.09 | 0.524 | 0.897 | 0.691 | 1.02
14 | AUUCACCUCGGUCGUCGGGUG [Fam2.2 aminoacylation ribozyme variant] | 2.41 | 2.42 | 11.4 | 2.85 | 2.53 | 3.12
15 | ACUCACCUAUGUCAUCGGGUG [Fam2.2 aminoacylation ribozyme variant] | 5.4 | 4.11 | 33.4 | 6.52 | 6.08 | 4.18
16 | CCACACCUCAAACAAUCGGUC [Fam1B.1 aminoacylation ribozyme variant] | 1.04 | 1.24 | 7.05 | 1.29 | 4.47 | 1.13
17 | AUUCACCUAGGUAAUCCGGUG [Fam2.2 aminoacylation ribozyme variant] | 3.77 | 2.33 | 30.4 | 4.57 | 4.8 | 2.39
18 | AUUCACCUAGGAUAUCGGGUG [Fam2.2 aminoacylation ribozyme variant] | 6.65 | 3.31 | 44.1 | 7.35 | 5.47 | 3.64
19 | CCACACUUGAAGCAAUUGGUC [Fam1B.1 aminoacylation ribozyme variant] | 0.63 | 0.643 | 0.359 | 0.539 | 0.386 | 0.587
20 | AUUGACCUAUGUCAUCGGGUG [Fam2.2 aminoacylation ribozyme variant] | 5.68 | 3.81 | 28.4 | 7.74 | 5.17 | 3.64
21 | CCACACGUCAAGCAAUCGGAC [Fam1B.1 aminoacylation ribozyme variant] | 1.14 | 1.53 | 0.667 | 1.36 | 0.681 | 2.03

Row | Sequence | self-aminoacylation (biotinyl-Met-oxazolone) | self-aminoacylation (biotinyl-Ile-oxazolone) | self-aminoacylation (biotinyl-Phe-oxazolone) | self-aminoacylation (biotinyl-Leu-oxazolone) | self-aminoacylation (biotinyl-Trp-oxazolone) | self-aminoacylation (biotinyl-Val-oxazolone)
22 | CUACUACAAACAAUCGGUCUC [Fam1A.1 aminoacylation ribozyme variant] | 0.53 | 0.647 | 1.05 | 0.418 | 0.673 | 0.59
23 | AUUACCCUGAGCAUCGAGUGA [Fam2.1 aminoacylation ribozyme variant] | 4.43 | 2.06 | 8.97 | 3.99 | 4.96 | 2.45
24 | GUAAUUCAAACAAUCGGUCUG [Fam1A.1 aminoacylation ribozyme variant] | 0.925 | 1.05 | 2.5 | 0.967 | 2.11 | 0.938
25 | CUACUUGAUACAAUCGGUCUG [Fam1A.1 aminoacylation ribozyme variant] | 0.735 | 0.753 | 0.52 | 0.734 | 0.517 | 0.776
26 | ACGGUUGCUAAUAGUCGCAAG [Fam3.1 aminoacylation ribozyme variant] | 1.19 | 1.3 | 2.51 | 1.31 | 1.38 | 1.32
27 | CCACACUUCAAACAAUCGCUC [Fam1B.1 aminoacylation ribozyme variant] | 0.869 | 1.1 | 1.32 | 1.29 | 0.765 | 1.33
28 | AUUCAGCUAGGUCAUCGGGAG [Fam2.2 aminoacylation ribozyme variant] | 1.61 | 1.72 | 4.09 | 1.69 | 1.32 | 1.68
29 | AUACACCUAAGUCAUCGGGUG [Fam2.2 aminoacylation ribozyme variant] | 4.44 | 3.47 | 28.8 | 5.83 | 4.14 | 2.91
30 | AAGUUUGGCAAUAGUCGCAAG [Fam3.1 aminoacylation ribozyme variant] | 1.49 | 1.79 | 1.92 | 1.4 | 1.49 | 1.42
31 | AUUCGCCUAGUUCAUCGGGUG [Fam2.2 aminoacylation ribozyme variant] | 2.85 | 2.26 | 16.2 | 3.82 | 3.62 | 2.8
32 | AUUCACCUCGUUCAUCGGGUG [Fam2.2 aminoacylation ribozyme variant] | 4.1 | 2.93 | 26.3 | 5.48 | 5 | 3.3
33 | AUUCACCUAGGACAUCGAGUG [Fam2.2 aminoacylation ribozyme variant] | 1.52 | 1.02 | 2.04 | 1.81 | 1.89 | 1.12
34 | CUACCUCAACCAAUCGGUCUG [Fam1A.1 aminoacylation ribozyme variant] | 0.811 | 0.766 | 1.08 | 0.671 | 0.886 | 0.891
35 | ACUCCCCUAGGUCAUCGGGUG [Fam2.2 aminoacylation ribozyme variant] | 13.7 | 8.61 | 101 | 18.6 | 13.8 | 10.3
36 | CUACUUCACACAAUCUGUCUG [Fam1A.1 aminoacylation ribozyme variant] | 0.558 | 0.655 | 0.903 | 0.573 | 0.513 | 0.699
37 | CCACACUUCUAUCAAUCGGUC [Fam1B.1 aminoacylation ribozyme variant] | 0.718 | 0.657 | 0.846 | 0.521 | 0.659 | 0.743
38 | CUACUUCAAUCAAUCGGUGUG [Fam1A.1 aminoacylation ribozyme variant] | 1.19 | 1.18 | 7.44 | 1.83 | 4.96 | 1.27
39 | AUUAACCUGGUCAUCGAGUGG [Fam2.1 aminoacylation ribozyme variant] | 1.63 | 1.25 | 2.19 | 2.11 | 2.03 | 1.2
40 | AUUUCCCUGGUCAUCGAGUGG [Fam2.1 aminoacylation ribozyme variant] | 7.95 | 3.66 | 12 | 8.26 | 7.09 | 3.99
41 | CUACAUGAAACAAUCGGUCUG [Fam1A.1 aminoacylation ribozyme variant] | 0.868 | 0.828 | 0.716 | 0.721 | 0.772 | 0.803
42 | AAGUCUGUUAAUAGUCGCAAG [Fam3.1 aminoacylation ribozyme variant] | 1.03 | 1.14 | 1.04 | 1.01 | 0.936 | 1.03
